In patent publication US20210246166A1 (Bayer, published 2021):
Numbered stars: 1 amine (or outer) side, 2 acyl side, 3 side chain; on linkers, the order of the positions; unused ones are H or OH. Bridge positions count the residues as written; N and C are the ends. Square brackets hold non-standard residues; d marks the D form. Ends that are not written are not given here. * marks the point of attachment. (S)‑4‑Piperazine‑2‑carboxylic acid = (S)-4-piperazine-2-carboxylic acid; 4‑Aminomethylphenylacetic acid = O=C(Cc1ccc(CN[*:1])cc1)[*:2]; NHCH2(1,3-C6H4)CH2CO = O=C(Cc1cccc(CN[*:1])c1)[*:2]; Phe(3-COOH) = N[C@@H](Cc1cccc(C(=O)O)c1)C(=O)O; Piperidin‑4‑ylacetic acid = O=C(CC1CCNCC1)*; Oic = O=C(O)[C@@H]1C[C@@H]2CCCC[C@@H]2N1; PEG6 = NCCOCCOCCOCCOCCOCCOCCC(=O)O; tBuAla = CC(C)(C)C[C@H](N)C(=O)O; Pen = CC(C)(S)[C@H](N)C(=O)O; NMeC = CN[C@@H](CS)C(=O)O; PEG3 = NCCOCCOCCOCCC(=O)O; Orn = NCCC[C@H](N)C(=O)O; Sar = CNCC(=O)O

T1: Recombinant human MASP1 enzyme (fragment corresponding to amino acids 297-699, C-terminal His Tag) (human, UniProt P48740 297-699)
T1 sequence: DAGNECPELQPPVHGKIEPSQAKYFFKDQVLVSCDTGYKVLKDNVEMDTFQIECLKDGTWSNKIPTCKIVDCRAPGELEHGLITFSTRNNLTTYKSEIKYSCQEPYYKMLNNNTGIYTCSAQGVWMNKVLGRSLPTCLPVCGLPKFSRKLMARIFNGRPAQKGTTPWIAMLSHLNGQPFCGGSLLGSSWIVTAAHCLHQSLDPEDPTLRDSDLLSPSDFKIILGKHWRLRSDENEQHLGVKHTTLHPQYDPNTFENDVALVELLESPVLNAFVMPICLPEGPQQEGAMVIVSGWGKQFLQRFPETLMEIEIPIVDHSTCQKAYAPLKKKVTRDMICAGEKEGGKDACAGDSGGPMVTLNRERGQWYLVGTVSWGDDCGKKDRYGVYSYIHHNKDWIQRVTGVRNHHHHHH

B1: ((N-Me)G)-IC+SRSLP-(Oic)-I-(Pen)+IP-(3-Aminomethylphenylacetic acid)-OH (peptide)
peptide: [Sar]ICSRSLP[Oic]I[Pen]IP[NHCH2(1,3-C6H4)CH2CO]-OH
modifications: disulfide 3-11; N-terminus assumed
SMILES: CC[C@H](C)[C@H](NC(=O)CNC)C(=O)N[C@H]1CSSC(C)(C)[C@@H](C(=O)N[C@H](C(=O)N2CCC[C@H]2C(=O)NCc2cccc(CC(=O)O)c2)[C@@H](C)CC)NC(=O)[C@H]([C@@H](C)CC)NC(=O)[C@@H]2C[C@@H]3CCCC[C@@H]3N2C(=O)[C@@H]2CCCN2C(=O)[C@H](CC(C)C)NC(=O)[C@H](CO)NC(=O)[C@H](CCCNC(=N)N)NC(=O)[C@H](CO)NC1=O
B2: (Piperidin-4-ylacetic acid)-IC+SRS-((tBu)A)-PPIC+IPD-OH (peptide)
peptide: {Piperidin‑4‑ylacetic acid}-ICSRS[tBuAla]PPICIPD-OH
modifications: disulfide 2-10
SMILES: CC[C@H](C)[C@H](NC(=O)CC1CCNCC1)C(=O)N[C@H]1CSSC[C@@H](C(=O)N[C@H](C(=O)N2CCC[C@H]2C(=O)N[C@@H](CC(=O)O)C(=O)O)[C@@H](C)CC)NC(=O)[C@H]([C@@H](C)CC)NC(=O)[C@@H]2CCCN2C(=O)[C@@H]2CCCN2C(=O)[C@H](CC(C)(C)C)NC(=O)[C@H](CO)NC(=O)[C@H](CCCNC(=N)N)NC(=O)[C@H](CO)NC1=O
B3: (Orn)-IC+SRS-((tBu)A)-PPI-((N-Me)C)+IPD-OH (peptide)
peptide: [Orn]ICSRS[tBuAla]PPI[NMeC]IPD-OH
modifications: disulfide 3-11; N-terminus assumed
SMILES: CC[C@H](C)[C@H](NC(=O)[C@@H](N)CCCN)C(=O)N[C@H]1CSSC[C@@H](C(=O)N[C@H](C(=O)N2CCC[C@H]2C(=O)N[C@@H](CC(=O)O)C(=O)O)[C@@H](C)CC)N(C)C(=O)[C@H]([C@@H](C)CC)NC(=O)[C@@H]2CCCN2C(=O)[C@@H]2CCCN2C(=O)[C@H](CC(C)(C)C)NC(=O)[C@H](CO)NC(=O)[C@H](CCCNC(=N)N)NC(=O)[C@H](CO)NC1=O
B4: (Orn)-IC+SRSLP-(Oic)-I-(Pen)+IPD-OH (peptide)
peptide: [Orn]ICSRSLP[Oic]I[Pen]IPD-OH
modifications: disulfide 3-11; N-terminus assumed
SMILES: CC[C@H](C)[C@H](NC(=O)[C@@H](N)CCCN)C(=O)N[C@H]1CSSC(C)(C)[C@@H](C(=O)N[C@H](C(=O)N2CCC[C@H]2C(=O)N[C@@H](CC(=O)O)C(=O)O)[C@@H](C)CC)NC(=O)[C@H]([C@@H](C)CC)NC(=O)[C@@H]2C[C@@H]3CCCC[C@@H]3N2C(=O)[C@@H]2CCCN2C(=O)[C@H](CC(C)C)NC(=O)[C@H](CO)NC(=O)[C@H](CCCNC(=N)N)NC(=O)[C@H](CO)NC1=O
B5: ((N-Me)G)-IC+SRSLP-(Oic)-I-(Pen)+IP-(PEG5(22 atoms))-OH (peptide)
peptide: [Sar]ICSRSLP[Oic]I[Pen]IP[PEG6]-OH
modifications: disulfide 3-11; N-terminus assumed
SMILES: CC[C@H](C)[C@H](NC(=O)CNC)C(=O)N[C@H]1CSSC(C)(C)[C@@H](C(=O)N[C@H](C(=O)N2CCC[C@H]2C(=O)NCCOCCOCCOCCOCCOCCOCCC(=O)O)[C@@H](C)CC)NC(=O)[C@H]([C@@H](C)CC)NC(=O)[C@@H]2C[C@@H]3CCCC[C@@H]3N2C(=O)[C@@H]2CCCN2C(=O)[C@H](CC(C)C)NC(=O)[C@H](CO)NC(=O)[C@H](CCCNC(=N)N)NC(=O)[C@H](CO)NC1=O
B6: ((N-Me)G)-IC+SRS-((tBu)A)-PPI-(Pen)+IP-((3-Carboxy)F)-OH (peptide)
peptide: [Sar]ICSRS[tBuAla]PPI[Pen]IP[Phe(3-COOH)]-OH
modifications: disulfide 3-11; N-terminus assumed
SMILES: CC[C@H](C)[C@H](NC(=O)CNC)C(=O)N[C@H]1CSSC(C)(C)[C@@H](C(=O)N[C@H](C(=O)N2CCC[C@H]2C(=O)N[C@@H](Cc2cccc(C(=O)O)c2)C(=O)O)[C@@H](C)CC)NC(=O)[C@H]([C@@H](C)CC)NC(=O)[C@@H]2CCCN2C(=O)[C@@H]2CCCN2C(=O)[C@H](CC(C)(C)C)NC(=O)[C@H](CO)NC(=O)[C@H](CCCNC(=N)N)NC(=O)[C@H](CO)NC1=O
B7: aIC+SRSLP-(Oic)-I-(Pen)-+IP-(3-Aminomethylphenylacetic acid)-OH (peptide)
peptide: [dA]ICSRSLP[Oic]I[Pen]IP[NHCH2(1,3-C6H4)CH2CO]-OH
modifications: disulfide 3-11; N-terminus assumed
SMILES: CC[C@H](C)[C@H](NC(=O)[C@@H](C)N)C(=O)N[C@H]1CSSC(C)(C)[C@@H](C(=O)N[C@H](C(=O)N2CCC[C@H]2C(=O)NCc2cccc(CC(=O)O)c2)[C@@H](C)CC)NC(=O)[C@H]([C@@H](C)CC)NC(=O)[C@@H]2C[C@@H]3CCCC[C@@H]3N2C(=O)[C@@H]2CCCN2C(=O)[C@H](CC(C)C)NC(=O)[C@H](CO)NC(=O)[C@H](CCCNC(=N)N)NC(=O)[C@H](CO)NC1=O
B8: (beta-P)-IC+SRS-((tBu)A)-PPI-(Pen)+IPD-OH (peptide)
peptide: PICSRS[tBuAla]PPI[Pen]IPD-OH
modifications: disulfide 3-11; N-terminus assumed
SMILES: CC[C@H](C)[C@H](NC(=O)[C@@H]1CCCN1)C(=O)N[C@H]1CSSC(C)(C)[C@@H](C(=O)N[C@H](C(=O)N2CCC[C@H]2C(=O)N[C@@H](CC(=O)O)C(=O)O)[C@@H](C)CC)NC(=O)[C@H]([C@@H](C)CC)NC(=O)[C@@H]2CCCN2C(=O)[C@@H]2CCCN2C(=O)[C@H](CC(C)(C)C)NC(=O)[C@H](CO)NC(=O)[C@H](CCCNC(=N)N)NC(=O)[C@H](CO)NC1=O
B9: ((N-Me)G)-IC+SRSLP-(Oic)-I-(Pen)+IP-(4-Aminomethylphenylacetic acid)-OH (peptide)
peptide: [Sar]ICSRSLP[Oic]I[Pen]IP[4‑Aminomethylphenylacetic acid]-OH
modifications: disulfide 3-11; N-terminus assumed
SMILES: CC[C@H](C)[C@H](NC(=O)CNC)C(=O)N[C@H]1CSSC(C)(C)[C@@H](C(=O)N[C@H](C(=O)N2CCC[C@H]2C(=O)NCc2ccc(CC(=O)O)cc2)[C@@H](C)CC)NC(=O)[C@H]([C@@H](C)CC)NC(=O)[C@@H]2C[C@@H]3CCCC[C@@H]3N2C(=O)[C@@H]2CCCN2C(=O)[C@H](CC(C)C)NC(=O)[C@H](CO)NC(=O)[C@H](CCCNC(=N)N)NC(=O)[C@H](CO)NC1=O
B10: ((N-Me)G)-IC+SRSLP-(Oic)-I-(Pen)+IP-(PEG2(13 atoms))-OH (peptide)
peptide: [Sar]ICSRSLP[Oic]I[Pen]IP[PEG3]-OH
modifications: disulfide 3-11; N-terminus assumed
SMILES: CC[C@H](C)[C@H](NC(=O)CNC)C(=O)N[C@H]1CSSC(C)(C)[C@@H](C(=O)N[C@H](C(=O)N2CCC[C@H]2C(=O)NCCOCCOCCOCCC(=O)O)[C@@H](C)CC)NC(=O)[C@H]([C@@H](C)CC)NC(=O)[C@@H]2C[C@@H]3CCCC[C@@H]3N2C(=O)[C@@H]2CCCN2C(=O)[C@H](CC(C)C)NC(=O)[C@H](CO)NC(=O)[C@H](CCCNC(=N)N)NC(=O)[C@H](CO)NC1=O

molecular target: Recombinant human MASP2 enzyme (fragment corresponding to amino acids 297-686, C-terminal His Tag) (human, UniProt O00187 297-686); test: cell-based or functional assay
Sequence (O00187 other isoform, or with tags, fused parts or gaps limits assumed): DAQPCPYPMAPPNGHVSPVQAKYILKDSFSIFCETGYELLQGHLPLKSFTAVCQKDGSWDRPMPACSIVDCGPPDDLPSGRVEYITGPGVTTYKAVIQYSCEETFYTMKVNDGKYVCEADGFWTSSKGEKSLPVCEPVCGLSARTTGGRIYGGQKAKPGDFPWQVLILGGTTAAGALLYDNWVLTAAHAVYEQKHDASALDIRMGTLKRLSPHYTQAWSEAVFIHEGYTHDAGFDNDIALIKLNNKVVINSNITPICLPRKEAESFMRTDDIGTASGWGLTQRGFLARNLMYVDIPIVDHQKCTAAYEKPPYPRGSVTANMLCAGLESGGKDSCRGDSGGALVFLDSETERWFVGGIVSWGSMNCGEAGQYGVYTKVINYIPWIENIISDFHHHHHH

| human MASP2 IC50 [nM] | Binder |
| --- | --- |
| 172 | B1 |
| 18 | B2 |
| 175 | B3 |
| 110 | B4 |
| 51 | B5 |
| 25 | B6 |
| 58 | [Sar]ICSRSLP[Oic]I[Pen]IP[PEG4‑CH2CO2H (15 atoms)]-OH (disulfide 3-11) [((N-Me)G)-IC+SRSLP-(Oic)-I-(Pen)+IP-(PEG4-CH2CO2H (15 atoms))-OH] |
| 37 | B7 |
| 78 | [Sar]ICSRSLP[Oic]I[Pen]I[(S)‑4‑Piperazine‑2‑carboxylic acid]-OH (disulfide 3-11) [((N-Me))-GIC+SRSLP-(Oic)-I-(Pen)+I-((S)-4-Piperazine-2-carboxylic acid)-OH] |
| 35 | B8 |
| 61 | B9 |
| 97 | B10 |

molecular target: T1, Recombinant human MASP1 enzyme …; test: cell-based or functional assay

| human MASP1 IC50 [nM] | Binder |
| --- | --- |
| 9.6 | B1 |
| 26 | B2 |
| 5.85 | B3 |
| 1.9 | B4 |
| 4 | B5 |
| 2.8 | B6 |
| 1.8 | [Sar]ICSRSLP[Oic]I[Pen]IP[PEG4‑CH2CO2H (15 atoms)]-OH (disulfide 3-11) [((N-Me)G)-IC+SRSLP-(Oic)-I-(Pen)+IP-(PEG4-CH2CO2H (15 atoms))-OH] |
| 3.7 | B7 |
| 2.4 | [Sar]ICSRSLP[Oic]I[Pen]I[(S)‑4‑Piperazine‑2‑carboxylic acid]-OH (disulfide 3-11) [((N-Me))-GIC+SRSLP-(Oic)-I-(Pen)+I-((S)-4-Piperazine-2-carboxylic acid)-OH] |
| 3 | B8 |
| 3.8 | B9 |
| 4.5 | B10 |
